Residue numbers refer to the chain shown, from its start.

To fix the notation:
T1: Human PTK7 (human, UniProt Q13308 31-1070)
T1 sequence: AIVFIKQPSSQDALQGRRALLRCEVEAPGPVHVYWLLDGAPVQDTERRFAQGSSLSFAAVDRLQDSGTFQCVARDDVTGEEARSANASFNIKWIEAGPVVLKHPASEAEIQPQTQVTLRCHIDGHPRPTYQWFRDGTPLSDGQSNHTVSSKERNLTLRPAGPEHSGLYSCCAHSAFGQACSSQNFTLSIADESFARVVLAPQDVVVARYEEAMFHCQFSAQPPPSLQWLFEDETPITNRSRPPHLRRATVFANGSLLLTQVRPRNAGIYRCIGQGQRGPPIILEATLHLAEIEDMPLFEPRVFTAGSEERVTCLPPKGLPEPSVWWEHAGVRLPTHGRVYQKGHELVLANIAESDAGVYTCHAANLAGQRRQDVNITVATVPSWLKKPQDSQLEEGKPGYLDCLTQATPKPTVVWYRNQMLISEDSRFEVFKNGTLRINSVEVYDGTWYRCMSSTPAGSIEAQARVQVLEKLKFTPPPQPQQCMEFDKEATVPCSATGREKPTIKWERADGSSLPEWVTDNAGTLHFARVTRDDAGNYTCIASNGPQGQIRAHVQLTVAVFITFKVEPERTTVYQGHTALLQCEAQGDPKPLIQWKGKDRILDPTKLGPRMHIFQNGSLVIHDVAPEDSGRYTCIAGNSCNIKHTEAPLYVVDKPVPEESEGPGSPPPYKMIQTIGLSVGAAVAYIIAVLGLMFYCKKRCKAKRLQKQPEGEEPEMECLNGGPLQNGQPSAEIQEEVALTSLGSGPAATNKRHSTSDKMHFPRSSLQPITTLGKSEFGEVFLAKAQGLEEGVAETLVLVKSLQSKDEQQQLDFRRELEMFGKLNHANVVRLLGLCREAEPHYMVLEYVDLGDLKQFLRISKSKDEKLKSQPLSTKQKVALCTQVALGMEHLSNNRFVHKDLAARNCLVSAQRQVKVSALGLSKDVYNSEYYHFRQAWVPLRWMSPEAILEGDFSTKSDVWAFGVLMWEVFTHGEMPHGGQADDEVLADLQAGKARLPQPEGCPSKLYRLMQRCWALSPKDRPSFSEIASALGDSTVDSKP

B1: MYT11346 (antibody, V domains shown)
VH: EVQLVESGGGLVQPGGSLRLSCTASGIDLSNYHVIWVRQAPGKGLEWVGIIYTYDTTYYANWAKGRFTISRDTSKNTVYLQMNSLRAEDTAVYFCARSFSDISDLIKLWGQGTLVTVSS
VL: EIVMTQSPSTLSASVGDRVIITCQASQSLYNNKDLAWYQQKPGKAPKLLIYEASKLASGVPSRFSGSGSGAEFTLTISSLQPDDFATYYCLGEFSCGSGDCLAFGQGTKLTVL
B2: MYT11418 (antibody, V domains shown)
VH: B1 VH with H33A
VL: B1 VL with E52A
B3: MYT11324 (antibody, V domains shown)
VH: EVQLVESGGGLVQPGGSLRLSCTASGIDLSRYSMGWVRQAPGKGLEWVGIISYGGSTYYASWAKGRFTISRDTSKNTVYLQMNSLRAEDTAVYFCARVGYPGYSGYGYAFDAFDPWGQGTLVTVSS
VL: EIVMTQSPSTLSASVGDRVIITCQSSKSVYNDNWLSWYQQKPGKAPKLLIYGASTLASGVPSRFSGSGSGAEFTLTISSLQPDDFATYYCHGGYSSSSDNGFGQGTKLTVL
B4: MYT11331 (antibody, V domains shown)
VH: B3 VH
VL: B3 VL with H91A, S98H
B5: MYT11332 (antibody, V domains shown)
VH: B3 VH
VL: B3 VL with H91A, D99H
B6: MYT11328 (antibody, V domains shown)
VH: B3 VH
VL: B3 VL with H91A, S95H
B7: MYT11326 (antibody, V domains shown)
VH: B3 VH
VL: B3 VL with H91A, G93H
B8: MYT11327 (antibody, V domains shown)
VH: B3 VH
VL: B3 VL with H91A, Y94H
B9: MYT11337 (antibody, V domains shown)
VH: B3 VH
VL: B3 VL with H91A, D99A

This assay deals with T1, Human PTK7. Kind of assay: cell-based or functional assay.
In the case of B1, the “Internalization, FOW @ 25 nM (fold over the wildtype, parental antibody)” value is 1.16 fold over parental antibody.
In the case of B2, the “Internalization, FOW @ 25 nM (fold over the wildtype, parental antibody)” value was 1.19 fold over parental antibody.
As for B3, the “Internalization, FOW @ 25 nM (fold over the wildtype, parental antibody)” value is 1.58 fold over parental antibody.
As for B4, the “Internalization, FOW @ 25 nM (fold over the wildtype, parental antibody)” value was 1.77 fold over parental antibody.
Regarding B5, the “Internalization, FOW @ 25 nM (fold over the wildtype, parental antibody)” value is 1.77 fold over parental antibody.
Take B6: the “Internalization, FOW @ 25 nM (fold over the wildtype, parental antibody)” value was 1.99 fold over parental antibody.
In the case of B7, the “Internalization, FOW @ 25 nM (fold over the wildtype, parental antibody)” value was 1.29 fold over parental antibody.
On to B8, for which the “Internalization, FOW @ 25 nM (fold over the wildtype, parental antibody)” value was 1.6 fold over parental antibody.
For the molecule B9, the “Internalization, FOW @ 25 nM (fold over the wildtype, parental antibody)” value was 1.68 fold over parental antibody.

The values above are taken from patent US20260209386A1 (MYTHIC THERAPEUTICS, published 2026).
